Experimental data: paper PMC10922795

Tests used:
Test in all cases: SPR
[1] = target: Igh^g2A10 mutant Fab J2/L114F with LC_Q106K (mouse)
[2] = target: Igh^g2A10 mutant Fab J2/L114F (mouse)
[3] = target: Igh^g2A10 mutant Fab J1/L114F with LC_Q106R (mouse)

## recombinant PfCSP (from UniProt Q7K740 19-374) (natural protein)
[1]
  fold increase in affinity over J2/L114F: 65 fold
[2]
  fold increase in affinity over the J2 UCA: 1.49 fold
[3]
  fold increase in affinity over J1/L114F: 18.2 fold
